Key:
[1] = biological target: polyclonal human IgG (Gammanorm, Octapharma) (human); test: gradient elution pH 6 to pH 3 (0.1 M citrate) from a column of immobilised ligand, pH at peak apex
[2] = biological target: polyclonal human IgG (Gammanorm, Octapharma) (human); test: breakthrough on a column of immobilised ligand, 1 mg/ml IgG, pH 7.4, residence time 2.4 min, ligand density 9.6 mg/ml
[3] = biological target: polyclonal human IgG (Gammanorm, Octapharma) (human); test: gradient elution pH 6 to pH 3 from a column of immobilised ligand; polyclonal IgG (Gammanorm) shows the biggest difference

elution pH, hIgG (first peak) [1]: 5.11 pH | elution pH, hIgG (second peak) [1]: 4.61 pH | Qb10% (dynamic binding capacity at 10% breakthrough) [2]: 36.4 mg/ml resin | Qb80% (dynamic binding capacity at 80% breakthrough) [2]: 65 mg/ml resin | increase in elution pH compared to Z4 [3]: > 1 >pH unit
Substance: Mutant Z(H18S)4: ligand tetramer containing four copies of protein Z, each containing the H18S substitution (designed binder)
